This test addresses Tor2 (yeast (endogenous in yeast cells), UniProt P32600 1-2474). As to the kind of experiment: cryo-EM structure.

Chain of Tor2 (P32600 whole entry): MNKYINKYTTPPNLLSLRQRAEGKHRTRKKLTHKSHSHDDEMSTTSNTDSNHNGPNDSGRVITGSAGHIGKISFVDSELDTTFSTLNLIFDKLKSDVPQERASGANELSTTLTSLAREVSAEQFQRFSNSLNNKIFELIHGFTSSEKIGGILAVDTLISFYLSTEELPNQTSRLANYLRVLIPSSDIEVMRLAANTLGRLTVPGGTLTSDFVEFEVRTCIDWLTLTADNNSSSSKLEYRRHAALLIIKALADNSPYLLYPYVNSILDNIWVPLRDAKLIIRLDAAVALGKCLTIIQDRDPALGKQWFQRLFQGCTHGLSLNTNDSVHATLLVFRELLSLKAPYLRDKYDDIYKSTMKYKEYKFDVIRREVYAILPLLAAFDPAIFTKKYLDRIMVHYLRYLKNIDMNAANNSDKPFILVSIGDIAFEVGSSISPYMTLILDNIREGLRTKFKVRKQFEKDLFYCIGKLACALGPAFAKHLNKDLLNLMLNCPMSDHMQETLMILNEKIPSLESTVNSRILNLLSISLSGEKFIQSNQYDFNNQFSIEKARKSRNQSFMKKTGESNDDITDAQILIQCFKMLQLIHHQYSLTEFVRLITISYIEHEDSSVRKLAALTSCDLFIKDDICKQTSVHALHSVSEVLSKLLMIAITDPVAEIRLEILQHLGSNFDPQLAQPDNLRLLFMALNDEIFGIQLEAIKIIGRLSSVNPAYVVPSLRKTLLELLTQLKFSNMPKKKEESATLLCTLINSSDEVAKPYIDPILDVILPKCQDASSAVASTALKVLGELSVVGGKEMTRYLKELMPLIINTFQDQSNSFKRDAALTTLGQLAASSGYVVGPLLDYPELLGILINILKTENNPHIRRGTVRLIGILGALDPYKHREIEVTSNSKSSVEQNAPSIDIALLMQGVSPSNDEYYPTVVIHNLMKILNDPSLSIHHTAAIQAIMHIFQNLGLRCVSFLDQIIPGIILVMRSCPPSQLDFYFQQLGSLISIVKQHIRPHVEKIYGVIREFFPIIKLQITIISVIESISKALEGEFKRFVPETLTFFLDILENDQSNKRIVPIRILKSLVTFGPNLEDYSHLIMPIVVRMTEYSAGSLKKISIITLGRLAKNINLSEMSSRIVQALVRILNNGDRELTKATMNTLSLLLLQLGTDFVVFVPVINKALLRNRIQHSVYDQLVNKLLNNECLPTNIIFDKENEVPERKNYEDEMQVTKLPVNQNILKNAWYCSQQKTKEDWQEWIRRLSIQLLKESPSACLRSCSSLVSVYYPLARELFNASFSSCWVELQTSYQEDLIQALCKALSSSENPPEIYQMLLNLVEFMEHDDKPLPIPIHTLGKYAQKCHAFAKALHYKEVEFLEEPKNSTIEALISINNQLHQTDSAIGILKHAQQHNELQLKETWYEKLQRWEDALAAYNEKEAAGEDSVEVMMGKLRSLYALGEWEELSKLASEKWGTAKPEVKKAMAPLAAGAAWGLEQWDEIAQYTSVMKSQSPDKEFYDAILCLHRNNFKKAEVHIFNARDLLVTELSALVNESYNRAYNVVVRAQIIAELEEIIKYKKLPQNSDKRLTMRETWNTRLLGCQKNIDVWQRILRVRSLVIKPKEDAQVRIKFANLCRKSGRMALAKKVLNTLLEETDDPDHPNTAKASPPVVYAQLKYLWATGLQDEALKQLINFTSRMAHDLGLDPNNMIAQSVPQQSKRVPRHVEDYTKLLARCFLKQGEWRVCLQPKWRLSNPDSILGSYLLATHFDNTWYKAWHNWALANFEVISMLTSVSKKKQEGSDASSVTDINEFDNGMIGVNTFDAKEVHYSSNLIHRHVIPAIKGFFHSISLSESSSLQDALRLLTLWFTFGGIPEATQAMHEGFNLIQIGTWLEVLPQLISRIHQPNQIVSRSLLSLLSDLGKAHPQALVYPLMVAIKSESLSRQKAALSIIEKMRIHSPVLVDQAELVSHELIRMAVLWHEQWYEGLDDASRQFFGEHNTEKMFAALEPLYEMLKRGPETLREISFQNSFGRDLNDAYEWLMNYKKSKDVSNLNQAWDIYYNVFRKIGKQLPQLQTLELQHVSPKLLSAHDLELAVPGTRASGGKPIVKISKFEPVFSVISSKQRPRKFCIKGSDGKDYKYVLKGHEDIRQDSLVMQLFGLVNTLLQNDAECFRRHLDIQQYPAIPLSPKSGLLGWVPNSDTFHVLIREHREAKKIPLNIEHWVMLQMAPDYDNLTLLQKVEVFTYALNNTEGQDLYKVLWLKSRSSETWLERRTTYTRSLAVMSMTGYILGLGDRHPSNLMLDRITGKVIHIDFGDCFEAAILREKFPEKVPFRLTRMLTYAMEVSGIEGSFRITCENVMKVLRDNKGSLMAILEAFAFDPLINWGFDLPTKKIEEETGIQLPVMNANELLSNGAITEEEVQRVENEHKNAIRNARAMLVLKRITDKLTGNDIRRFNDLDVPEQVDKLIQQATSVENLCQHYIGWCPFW

B1: Avo2 (natural protein)
chain: MLKEPSVRLREAIIEGNLLIVKRLLRRNPDLLTNIDSENGWSSLHYASYHGRYLICVYLIQLGHDKHELIKTFKGNTCVHLALMKGHEQTLHLLLQQFPRFINHRGENGRAPIHIACMNDYYQCLSLLIGVGADLWVMDTNGDTPLHVCLEYGSISCMKMLLNEGEVSLDDNVRDKGNWKPIDVAQTFEVGNIYSKVLKEVKKKGPPLGAGKKPSSFRTPILNAKATFEDGPSPVLSMNSPYSLYSNNSPLPVLPRRISTHTTSGNGGNRRSSITNPVFNPRKPTLSTDSFSSSSNSSSRLRVNSINVKTPVGVSPKKELVSESVRHSATPTSPHNNIALINRYLLPNKSNDNVRGDSQTATINDDGGGGNGGDATIGMGLRKDPDDENENKYKIKVNNGEPRRRVSLLNIPISKLRNSNNTRAED
Regarding B1, the binding result is reported as “binds”.

B2: Lst8 (natural protein)
chain: MSVILVSAGYDHTIRFWEALTGVCSRTIQHSDSQVNRLEITNDKKLLATAGHQNVRLYDIRTTNPNPVASFEGHRGNVTSVSFQQDNRWMVTSSEDGTIKVWDVRSPSIPRNYKHNAPVNEVVIHPNQGELISCDRDGNIRIWDLGENQCTHQLTPEDDTSLQSLSMASDGSMLAAANTKGNCYVWEMPNHTDASHLKPVTKFRAHSTYITRILLSSDVKHLATCSADHTARVWSIDDDFKLETTLDGHQRWVWDCAFSADSAYLVTASSDHYVRLWDLSTREIVRQYGGHHKGAVCVALNDV
Take B2: the binding result is “binds”.

Source of the values: article doi:10.1101/2025.07.02.662585 (bioRxiv, 2025).
